In the supplement of paper PMC10567573:

B1: NP_009172.2 (parent)
chain: LPALFTDLYSQEITAEEAREALP

Variants of: B1
Assay: protein stability index of a GFP-peptide fusion (GPS, HEK-293T) (PSI 1-6); higher = more stable
Conditions: c terminus: native
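Note: lentivirally expressed fusion library, cells FACS-sorted into six equal-sized GFP/DsRed ratio bins, PSI computed from sequencing read fractions per bin weighted by bin number.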

Protein stability index: each site, then its substitutions
S10: I 1.95; Y 2.36; N 2.61; Q 2.57; T 2.38; H 2.85; A 2.52; E 2.48; W 2.26; R 2.71; P 3.79; F 2.57; M 2.26; L 2.3; C 2.16; G 3.08; V 2.35; D 2.8; K 2.48
Y9: F 2.81; M 3.13; K 5.39; T 2.74; A 2.34; S 3.98; H 4.49; P 5.13; W 2.65; Q 5.15; N 5.01; E 5.17; R 5.15; D 5.38; C 2.42; L 2.39; G 5.3; I 1.88; V 2.21
L8: A 3.14; F 3.05; S 4.05; R 2.22; Q 2.91; D 5.11; M 2.24; E 4.59; P 5.43; G 5.28; K 2.39; V 2.81; C 3.77; T 3.69; H 2.56; I 2.59; Y 2.53; W 3.27; N 3.46
T14: Q 2.27; A 2.21; M 2.45; P 3.48; D 2.55; E 2.66; H 2.46; K 2.34; S 2.67; G 2.73; R 2.44; F 2.48; L 2.48; I 2.25; C 2.48; V 2.51; W 2.62; N 2.76; Y 2.56
I13: Q 2.98; R 2.1; V 2.46; P 3.87; K 2.66; G 3.81; D 3.25; H 2.71; N 3.46; S 3.26; L 2.71; C 2.57; Y 2.69; A 2.97; W 2.15; T 3.09; M 2.53; E 3.25; F 2.69
D7: C 3.44; K 3.33; Y 2.56; H 3.13; E 2.46; M 2.71; F 2.6; G 4.02; I 2.49; V 2.58; A 2.88; N 3.52; P 4.4; R 2.77; L 2.61; S 3.08; W 2.48; Q 2.63; T 2.57
Q11: P 3.82; D 3.31; M 2.54; V 2.79; A 2.7; S 3.04; F 2.52; T 3.21; N 2.92; C 2.95; I 2.52; K 2.4; L 2.65; E 2.88; H 2.76; Y 2.67; R 2.26; G 3.59; W 2.63
A15: F 2.53; C 3; E 2.55; G 2.83; H 2.6; I 2.76
E12: Q 2.69; D 2.99; S 3.13; F 3.01; A 3.56; R 2.59; I 3.15; N 3.79; H 3.39; L 3.04; K 2.92; P 3.77; W 2.21; M 2.93; T 3.03; Y 3.07; G 3.78; V 3.38; C 3.19
T6: Y 4.5; V 2.24; P 5.24; R 3.15; M 3.69; W 4.06; Q 2.18; N 4.77; S 2.55
